Where only a bound is given, the exact number is not on record here.

The results in this text go back to paper doi:10.1101/2024.01.22.576655.

The target in assay [1] is RNC_(1-646) (Escherichia coli BL21(DE3)). Nature of the assay: co-sedimentation.
Assay [2] deals with RNC_(1-180) (Escherichia coli BL21(DE3)). Nature of the assay: co-sedimentation.
The target of the next assay is longer NCs. Nature of the assay: co-sedimentation.
The target of assay [3] is β-gal RNCs purified in low-salt buffer without the second sucrose cushion. The assay is described as follows: affinity purification with mass spectrometry.
Assay [4] deals with BADAN-labelled TF_(R14C) (Escherichia coli) (UniProt P0A850). Nature of the assay: other fluorescence titration.

DnaJ (endogenous), sequence (P08622 whole entry): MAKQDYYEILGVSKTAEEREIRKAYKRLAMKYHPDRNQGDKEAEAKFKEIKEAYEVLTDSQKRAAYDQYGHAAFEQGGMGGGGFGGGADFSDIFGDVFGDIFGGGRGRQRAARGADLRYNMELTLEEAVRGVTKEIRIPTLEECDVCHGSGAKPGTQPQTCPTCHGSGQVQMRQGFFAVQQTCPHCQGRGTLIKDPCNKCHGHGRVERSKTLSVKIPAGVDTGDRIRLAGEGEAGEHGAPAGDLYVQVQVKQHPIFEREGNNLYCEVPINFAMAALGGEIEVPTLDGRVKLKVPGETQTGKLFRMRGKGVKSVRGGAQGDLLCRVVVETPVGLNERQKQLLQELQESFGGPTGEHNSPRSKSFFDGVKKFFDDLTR

In assay [1], “Trigger factor, wild type, recombinant (from UniProt P0A850 1-432) (natural protein)” displayed a stoichiometry N of 1 TF per RNC. Consider “DnaK, recombinant (from UniProt P0A6Y8 1-638) (natural protein)”, for which the stoichiometry N in assay [2] stood at 1 DnaK per NC; in assay [1] it was 2 DnaK per NC. In the assay with longer NCs, the stoichiometry N (molecules of DnaK per NC) fell in the range of 2 to 3. As to “DnaJ (endogenous) (from UniProt P08622 1-376) (natural protein)”, in assay [3], the occupancy is below 10%. With RNC_(1-646) (complex), the Kd in assay [4] was determined as 21 nM.

Consider “DnaK (endogenous) (from UniProt P0A6Y8 1-638) (natural protein)”, for which, in assay [3], the occupancy is below 10%.
